Publication PMC6910952 (Nature Communications, 2019)

Molecular target: T1, GST-yNpl4 A494F (Saccharomyces cerevisiae, UniProt P33755 1-580, A494F)
T1 construct: Npl4 of Saccharomyces cerevisiae (yNpl4), full length; source: E. coli Rosetta (DE3) (pGEX-6P1), purified (Glutathione Sepharose FF, Resource Q); not shown: GST, N-terminal, kept
T1 sequence (looked up): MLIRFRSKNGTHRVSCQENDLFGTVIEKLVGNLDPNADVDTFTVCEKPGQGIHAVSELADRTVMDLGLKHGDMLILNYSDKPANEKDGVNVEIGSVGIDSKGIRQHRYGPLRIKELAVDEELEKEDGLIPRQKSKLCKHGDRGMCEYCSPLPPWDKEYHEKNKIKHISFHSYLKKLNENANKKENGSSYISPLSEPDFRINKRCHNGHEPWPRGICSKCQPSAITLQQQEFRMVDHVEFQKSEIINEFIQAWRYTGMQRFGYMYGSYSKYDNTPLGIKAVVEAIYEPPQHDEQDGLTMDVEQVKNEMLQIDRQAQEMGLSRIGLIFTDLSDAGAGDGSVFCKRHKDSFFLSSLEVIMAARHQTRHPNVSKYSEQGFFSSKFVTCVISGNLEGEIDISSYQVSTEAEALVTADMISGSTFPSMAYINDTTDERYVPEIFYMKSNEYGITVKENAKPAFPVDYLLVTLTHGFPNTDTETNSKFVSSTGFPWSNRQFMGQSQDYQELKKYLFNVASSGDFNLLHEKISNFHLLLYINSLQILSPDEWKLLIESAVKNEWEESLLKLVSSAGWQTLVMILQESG
Experiment: pull-down; GST-yNpl4 (0.5 μM, wild type or mutant) on Glutathione Sepharose 4B beads, 1 h at room temperature with 0.5 μM yUfd1, 3 μM Cdc48 (0.5 μM hexamer) and 1 μg K48 chains in 100 μL 50 mM Tris-HCl pH 7.5, 100 mM NaCl, 10% glycerol, 0.1% Triton X-100; chains detected by anti-Ub immunoblot, proteins by Ponceau S
Conditions: both partners purified

binding result: binds
B1: yUfd1 (full length, untagged) (natural protein, Saccharomyces cerevisiae, UniProt P53044 1-361, looked up)
chain: MFSGFSSFGGGNGFVNMPQTFEEFFRCYPIAMMNDRIRKDDANFGGKIFLPPSALSKLSMLNIRYPMLFKLTANETGRVTHGGVLEFIAEEGRVYLPQWMMETLGIQPGSLLQISSTDVPLGQFVKLEPQSVDFLDISDPKAVLENVLRNFSTLTVDDVIEISYNGKTFKIKILEVKPESSSKSICVIETDLVTDFAPPVGYVEPDYKALKAQQDKEKKNSFGKGQVLDPSVLGQGSMSTRIDYAGIANSSRNKLSKFVGQGQNISGKAPKAEPKQDIKDMKITFDGEPAKLDLPEGQLFFGFPMVLPKEDEESAAGSKSSEQNFQGQGISLRKSNKRKTKSDHDSSKSKAPKSPEVIEID
notes: Ufd1 of Saccharomyces cerevisiae (yUfd1), full length; codon-optimized synthetic cDNA; removal of GST by HRV3C is surmised; also called untagged Ufd1; source: E. coli Rosetta (DE3) (pGEX-6P1), purified
